Literature values in patent publication US10385327B2, “Enhanced E. coli for the production of fatty acids and method of producing the same” (University of Puerto Rico, priority 2012, dated 2019).

Columns and labels:
[1] = literature value for FAS dehydratase construct
[2] = tested on: E. coli BL21-DE3-CodonPlus (RIL) cells; details: previous work by others

Molecule | specific activity reported (Pasta et al., 2007) [1] | effect of overexpression on production of fatty acids in E. coli [2]
FAS 1-1168 construct: Fatty Acid Synthase construct of Pasta et al., 2007, literature comparator for dehydratase specific activity (protein, UniProt P49327 1-1168, looked up, fragment) MEEVVIAGMSGKLPESENLQEFWDNLIGGVDMVTDDDRRWKAGLYGLPRRSGKLKDLSRFDASFFGVHPKQAHTMDPQLRLLLEVTYEAIVDGGINPDSLRGTHTGVWVGVSGSETSEALSRDPETLVGYSMVGCQRAMMANRLSFFFDFRGPSIALDTACSSSLMALQNAYQAIHSGQCPAAIVGGINVLLKPNTSVQFLRLGMLSPEGTCKAFDTAGNGYCRSEGVVAVLLTKKSLARRVYATILNAGTNTDGFKEQGVTFPSGDIQEQLIRSLYQSAGVAPESFEYIEAHGTGTKVGDPQELNGITRALCATRQEPLLIGSTKSNMGHPEPASGLAALAKVLLSLEHGLWAPNLHFHSPNPEIPALLDGRLQVVDQPLPVRGGNVGINSFGFGGSNVHIILRPNTQPPPAPAPHATLPRLLRASGRTPEAVQKLLEQGLRHSQDLAFLSMLNDIAAVPATAMPFRGYAVLGGERGGPEVQQVPAGERPLWFICSGMGTQWRGMGLSLMRLDRFRDSILRSDEAVKPFGLKVSQLLLSTDESTFDDIVHSFVSLTAIQIGLIDLLSCMGLRPDGIVGHSLGEVACGYADGCLSQEEAVLAAYWRGQCIKEAHLPPGAMAAVGLSWEECKQRCPPGVVPACHNSKDTVTISGPQAPVFEFVEQLRKEGVFAKEVRTGGMAFHSYFMEAIAPPLLQELKKVIREPKPRSARWLSTSIPEAQWHSSLARTSSAEYNVNNLVSPVLFQEALWHVPEHAVVLEIAPHALLQAVLKRGLKPSCTIIPLMKKDHRDNLEFFLAGIGRLHLSGIDANPNALFPPVEFPAPRGTPLISPLIKWDHSLAWDVPAAEDFPNGSGSPSAAIYNIDTSSESPDHYLVDHTLDGRVLFPATGYLSIVWKTLARALGLGVEQLPVVFEDVVLHQATILPKTGTVSLEVRLLEASRAFEVSENGNLVVSGKVYQWDDPDPRLFDHPESPTPNPTEPLFLAQAEVYKELRLRGYDYGPHFQGILEASLEGDSGRLLWKDNWVSFMDTMLQMSILGSAKHGLYLPTRVTAIHIDPATHRQKLYTLQDKAQVADVVVSRWLRVTVAGGVHISGLHTESAPRRQQEQQVPILEKFCFTPHTEEGCLSERAALQEELQLCKGLVQALQTKVTQQGLKMVVPGLDGAQ | 204 mol product/(min*mol enzyme) | –
E. coli FabA dehydratase: DH enzyme involved in fatty acid biosynthesis in E. coli (protein, UniProt P0A6Q3 2-172, looked up) 3-hydroxydecanoyl-[acyl-carrie …: VDKRESYTKEDLLASGRGELFGAKGPQLPAPNMLMMDRVVKMTETGGNFDKGYVEAELDINPDLWFFGCHFIGDPVMPGCLGLDAMWQLVGFYLGWLGGEGKGRALGVGEVKFTGQVLPTAKKVTYRIHFKRIVNRRLIMGLADGEVLVDGRLIYTASDLKVGLFQDTSAF | – | does not increase the production of fatty acids
